Test results: article PMC3059903 (EMBO Reports, 2011)

Target: laminin β1 LN–LEa1–4 fragment (mouse, UniProt P02469 22-509)
Test: SPR

laminin β1 LN–LEa1–4 fragment, sequence (P02469 22-509): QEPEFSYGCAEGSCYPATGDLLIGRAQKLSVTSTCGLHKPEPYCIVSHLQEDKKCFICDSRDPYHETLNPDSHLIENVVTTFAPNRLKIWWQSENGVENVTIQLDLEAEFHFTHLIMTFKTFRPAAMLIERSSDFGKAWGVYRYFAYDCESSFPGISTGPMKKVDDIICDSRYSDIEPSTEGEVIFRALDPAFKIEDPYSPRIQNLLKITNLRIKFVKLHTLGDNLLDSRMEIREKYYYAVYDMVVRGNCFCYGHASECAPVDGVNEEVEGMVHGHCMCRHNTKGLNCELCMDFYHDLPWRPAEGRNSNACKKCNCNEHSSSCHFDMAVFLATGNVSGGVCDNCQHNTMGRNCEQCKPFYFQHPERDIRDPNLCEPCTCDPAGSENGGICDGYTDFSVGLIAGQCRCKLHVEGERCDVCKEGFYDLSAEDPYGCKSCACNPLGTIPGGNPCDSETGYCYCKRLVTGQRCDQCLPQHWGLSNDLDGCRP

Kd: ≥ 5 µM
B1: laminin γ1 LN–LEa1–4 fragment (domain or fragment, mouse, UniProt P02468 34-492, looked up)
chain: AMDECADEGGRPQRCMPEFVNAAFNVTVVATNTCGTPPEEYCVQTGVTGVTKSCHLCDAGQQHLQHGAAFLTDYNNQADTTWWQSQTMLAGVQYPNSINLTLHLGKAFDITYVRLKFHTSRPESFAIYKRTREDGPWIPYQYYSGSCENTYSKANRGFIRTGGDEQQALCTDEFSDISPLTGGNVAFSTLEGRPSAYNFDNSPVLQEWVTATDIRVTLNRLNTFGDEVFNEPKVLKSYYYAISDFAVGGRCKCNGHASECVKNEFDKLMCNCKHNTYGVDCEKCLPFFNDRPWRRATAESASESLPCDCNGRSQECYFDPELYRSTGHGGHCTNCRDNTDGAKCERCRENFFRLGNTEACSPCHCSPVGSLSTQCDSYGRCSCKPGVMGDKCDRCQPGFHSLTEAGCRPCSCDLRGSTDECNVETGRCVCKDNVEGFNCERCKPGFFNLESSNPKGCTP
